Results on three substances are retold here after FireProtDB (doi:10.1021/bi973006i).

Values joined by “and” are separate entries in the source; they are usually repeats but may differ in a detail not shown here. Equal entries are not always repeated.

The conditions of this data set: Thermal, reversible: yes.
[1] abbreviates: Methanothermus fervidus, pH 3, DSC, glycine 25 mM, KCl 0.2 M.
The mark [2] stands for this setting: Methanothermus fervidus, pH 4, DSC, glycine 25 mM, KCl 0.2 M.
Setting [3] is: Methanothermus fervidus, pH 5, DSC, acetate 25 mM, KCl 0.2 M.
[4] abbreviates: Methanothermus fervidus, pH 6, DSC, MES 25 mM, KCl 0.2 M.
[5] abbreviates: Methanobacterium formicicum, pH 2, DSC, glycine 25 mM, KCl 1.0 M.
The mark [6] stands for this setting: Methanobacterium formicicum, pH 3, DSC, glycine 25 mM, KCl 1.0 M.
[7] abbreviates: Methanobacterium formicicum, pH 4, DSC, glycine 25 mM, KCl 0.2 M.
[8] abbreviates: Methanobacterium formicicum, pH 4, DSC, glycine 25 mM, KCl 1.0 M.
Setting [9] is: Methanobacterium formicicum, pH 5, DSC, acetate 25 mM, KCl 0.2 M.
Setting [10] is: Methanobacterium formicicum, pH 5, DSC, acetate 25 mM, KCl 1.0 M.
The mark [11] stands for this setting: Methanobacterium formicicum, pH 6, DSC, MES 25 mM, KCl 0.2 M.
[12] abbreviates: Methanobacterium formicicum, pH 6, DSC, MES 25 mM, KCl 1.0 M.

Archaeal histone B wild type, O59627, sequence (O59627 whole entry): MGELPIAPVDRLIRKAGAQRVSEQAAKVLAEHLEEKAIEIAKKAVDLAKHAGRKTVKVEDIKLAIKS
DNA-binding protein HMf-1 wild type, P48781, sequence (P48781 whole entry): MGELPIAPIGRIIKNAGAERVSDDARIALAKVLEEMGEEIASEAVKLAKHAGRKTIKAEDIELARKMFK
Archaeal histone A1 wild type, P48782, sequence (P48782 whole entry): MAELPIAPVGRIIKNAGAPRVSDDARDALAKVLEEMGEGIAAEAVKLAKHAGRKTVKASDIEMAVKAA

For the substance Archaeal histone B wild type, O59627, the Tm is 107 °C (Pyrococcus furiosus (strain ATCC 43587 / DSM 3638 / JCM 8422 / Vc1), pH 4, CD, glycine 25 mM, KCl 0.2 M); 114 °C (Pyrococcus furiosus (strain ATCC 43587 / DSM 3638 / JCM 8422 / Vc1), pH 5, CD, acetate 25 mM, KCl 0.2 M); 110 °C (Pyrococcus furiosus (strain ATCC 43587 / DSM 3638 / JCM 8422 / Vc1), pH 7.5, CD, phosphate 25 mM, KCl 0.2 M).
Take “DNA-binding protein HMf-1 wild type, P48781”: the Tm is, setting by setting: (Methanothermus fervidus, pH 2, CD, glycine 25 mM, KCl 1.0 M) 94 °C; (Methanothermus fervidus, pH 2.5, CD, glycine 25 mM, KCl 0.2 M) 78.2 °C; (Methanothermus fervidus, pH 2.7, CD, glycine 25 mM, KCl 0.2 M) 84.9 °C; (Methanothermus fervidus, pH 3, CD, glycine 25 mM, KCl 0.2 M) 84.6 °C and 89.3 °C; (Methanothermus fervidus, pH 3, CD, glycine 25 mM, KCl 1.0 M) 101 °C; under setting [1], 96.1 °C. Besides, the Tm (Methanothermus fervidus, pH 3.3, CD, glycine 25 mM, KCl 0.2 M) was found to be 94.1 °C; the Tm (Methanothermus fervidus, pH 3.7, CD, glycine 25 mM, KCl 0.2 M) worked out at 103 °C; the Tm (Methanothermus fervidus, pH 4, CD, glycine 25 mM, KCl 0.2 M) is 100 °C and 103 °C; the Tm under setting [2] stood at 97.6 °C; the Tm under setting [3] stood at 104 °C; the Tm under setting [4] worked out at 101 °C. Also, the “unfolding enthalpy (calorimetric)” value is, setting by setting: under setting [1], 14.1 kcal/mol; under setting [2], 41.3 kcal/mol; under setting [3], 37.3 kcal/mol; under setting [4], 44.5 kcal/mol. In addition, the “unfolding enthalpy (van 't Hoff)” value was 139 kcal/mol under setting [1], 158 kcal/mol under setting [2], 164 kcal/mol under setting [3] and 158 kcal/mol under setting [4].
In the case of Archaeal histone A1 wild type, P48782, the Tm amounted to 60.3 °C (Methanobacterium formicicum, pH 2, CD, glycine 25 mM, KCl 1.0 M); 64.7 °C under setting [5]; 73 °C (Methanobacterium formicicum, pH 3, CD, glycine 25 mM, KCl 1.0 M); 77 °C under setting [6]; 91.5 °C (Methanobacterium formicicum, pH 4, CD, glycine 25 mM, KCl 1.0 M); 75.6 °C under setting [7]. Further, the Tm reads like this: under setting [8], 90.3 °C; (Methanobacterium formicicum, pH 5, CD, acetate 25 mM, KCl 0.2 M) 74.8 °C; (Methanobacterium formicicum, pH 5, CD, acetate 25 mM, KCl 1.0 M) 92 °C; under setting [9], 76.9 °C; under setting [10], 90.9 °C; (Methanobacterium formicicum, pH 6, CD, MES 25 mM, KCl 0.2 M) 70.9 °C. The Tm runs as follows: under setting [11], 76.5 °C; under setting [12], 90.5 °C. The “unfolding enthalpy (calorimetric)” value runs as follows: under setting [5], 10.5 kcal/mol; under setting [6], 35.4 kcal/mol; under setting [7], 45.6 kcal/mol; under setting [8], 47.1 kcal/mol; under setting [9], 36.9 kcal/mol; under setting [10], 41 kcal/mol. In addition, the “unfolding enthalpy (calorimetric)” value was found to be 63.9 kcal/mol under setting [11] and 50.4 kcal/mol under setting [12]. Besides, the “unfolding enthalpy (van 't Hoff)” value by setting is: under setting [5], 115 kcal/mol; under setting [6], 109 kcal/mol; under setting [7], 91.1 kcal/mol; under setting [8], 129 kcal/mol; under setting [9], 114 kcal/mol; under setting [10], 124 kcal/mol. The “unfolding enthalpy (van 't Hoff)” value under setting [11] turned out to be 94.9 kcal/mol and the “unfolding enthalpy (van 't Hoff)” value under setting [12] amounted to 122 kcal/mol.

In general, Tm refers to the temperature at which the thermal transition is half complete.
